Assay results published in the supplement of paper PMC11908140.

B1: library; numbered along this chain (parent)
chain: MRKPRAAVGSGHRKQAASQEGRQKHAKNNSQAKPSACDGLARQPEEVVLQASVSSYHLFRDVAEVTAFRGSLLSWYDQEKRDLPWRRRAEDEMDLDRRAYAVWVSEVMLQQTQVATVINYYTGWMQKWPTLQDLASASLEEVNQLWAGLGYYSRGRRLQEGARKVVEELGGHMPRTAETLQQLLPGVGRYTAGAIASIAFGQATGVVDGNVARVLCRVRAIGADPSSTLVSQQLWGLAQQLVDPARPGDFNQAAMELGATVCTPQRPLCSQCPVESLCRARQRVEQEQLLASGSLSGSPDVEECAPNTGQCHLCLPPSEPWDQTLGVVNFPRKASRKPPREESSATCVLEQPGALGAQILLVQRPNSGLLAGLWEFPSVTWEPSEQLQRKALLQELQRWAGPLPATHLRHLGEVVHTFSHIKLTYQVYGLALEGQTPVTTVPPGARWLTQEEFHTAAVSTAMKKVFRVYQGQQPGTCMGSKRSQVSSPCSRKKPRMGQQVLDNFFRSHISTDAHSLNSAAQ

Variants of: B1
Assay: 8OG:A repair function score (normalized; synonymous = 0, nonsense = -1) (normalized log-likelihood score); higher = more repair activity (WT-like)
Conditions: with 8OG:A DNA repair reporter (GFP) in HEK-293 MUTYH KO cells
In short: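 After 72 h, viable mCherry+ cells were split into GFP+ (repair) and GFP− bins in three replicates per tile. These cells were MUTYH knockout HEK-293 cells holding lentiviral MUTYH cDNA NNN codon-scan libraries, kept in 10 pg/ml doxycycline and co-transfected with mCherry plus an 8OG:A GFP repair reporter. Sequencing of tile amplicons gave per-tile Rosace fitness scores, normalized into a repair function score anchored on synonymous and nonsense distributions. Synonymous medians were fixed at 0, nonsense at -1, and variants under 300 counts per million at the start were removed.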
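Further: cells sorted at 72 h after reporter transfection.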

8OG:A repair function score of substitutions, site by site:
T308: H -0.0553 | F -0.0849 | L -0.0193 | K -0.0882 | G -0.0427 | C -0.00889 | E -0.0446 | I -0.0904 | A 0.0246 | D -0.0467
P299: T -0.0424 | V -0.0192 | Y -0.00692 | S -0.0568 | W -0.0506
E303: W -0.175 | H -0.102 | A -0.0517 | M 0.000479 | Q 0.0405 | K -0.0605 | L -0.0849 | S -0.0938 | C -0.0302 | P -0.218 | G -0.0952 | T -0.0474 | N -0.0416 | D -0.0577 | F -0.112 | R -0.0675 | Y -0.231 | V -0.0344 | I -0.101
N307: M -0.145 | R -0.00117 | L -0.079 | E -0.0119 | S -0.00118 | I -0.0284 | P -0.0382 | Y -0.0923 | V 0.0207 | G -0.0226 | H -0.0535 | K -0.0345 | D 0.0758 | Q -0.00475 | C -0.119 | T -0.07 | A -0.0752 | F -0.00176 | W -0.0672
V301: W -0.211 | P -0.31 | F -0.175 | Y -0.219 | M -0.126 | S -0.344 | A -0.249 | H -0.166 | N -0.386 | R -0.275 | G -0.279 | E -0.439 | T -0.284 | K -0.283 | C -0.217 | L -0.0363 | D -0.39 | Q -0.242 | I -0.0154
A305: P -0.125 | C -0.0298 | T -0.034 | S -0.019 | Y 0.000265 | N 0.00434 | W -0.0242 | V -0.0191 | E -0.0473 | I 0.00729 | R -0.0332 | Q -0.0168 | H -0.0126 | G -0.0138 | L -0.00389 | K -0.0297 | D -0.0865 | F -0.0551 | M -0.0121
D300: A -0.149 | L -0.189 | R -0.291 | H -0.0192 | T -0.109 | I -0.191 | K -0.325 | E -0.0547 | S -0.139 | M -0.0873 | Y -0.121 | G -0.148 | N -0.0764 | V -0.0916 | W -0.16 | P -0.0407 | C -0.0631 | Q -0.112 | F -0.255
E302: I -0.284 | R -0.254 | P -0.223 | G -0.316 | M -0.216 | T -0.238 | W -0.215 | S -0.307 | Q -0.207 | F -0.253 | K -0.367 | H -0.259 | L -0.236 | D -0.367 | N -0.316 | C -0.32 | Y -0.246 | V -0.232 | A -0.273
C304: D -0.518 | L -0.16 | E -0.556 | V -0.331 | Q -0.421 | R -0.464 | S -0.289 | H -0.403 | T -0.454 | N -0.439 | Y -0.341 | M -0.303 | K -0.535 | A -0.225 | F -0.29 | I -0.257 | W -0.296 | G -0.343 | P -0.398
P306: K -0.0963 | H -0.0537 | S -0.0289 | W -0.009 | Q 0.0003 | F -0.0382 | L -0.00346 | V -0.015 | A -0.0211 | R -0.0125 | I -0.0314 | C -0.044 | T -0.00972 | M -0.0214 | D -0.0656 | E -0.0828 | N -0.00787 | G -0.0173 | Y -0.0217
